What was measured:
[1] = molecular target: T1, CTLA4-Fc fusion protein (human, biotinylated where used as CTLA4-Fc-Biotin (Examples 5.1-5.3)); assay: competitive ELISA: CD80-Fc-Biotin signal on coated CTLA4-Fc with 500 ng VHH/well; competitor CD80-Fc-Biotin
T1 construct: expressed in HEK293 cells; also called human CTLA4-Fc protein; CTLA4-Fc antigen protein
Protocol: (§1) SA-HRP (purchased from Sigma) was added and allowed to react for 1 hour at room temperature. After adding chromogenic solution, absorbance was read at 405 nm wavelength.

[2] = molecular target: T2, Fc protein; assay: ELISA, Fc protein coated, 10 ng VHH/well
T2 construct: Counter-screen for the Fc part of CTLA4-Fc
Protocol: (§2) Plates were coated with Fc protein overnight at 4° C. and 10 ng of the heavy chain single domain antibody obtained in Example 2.1 was added to each well (control was a single domain antibody against other unrelated targets) and allowed to react for 1 hour at room temperature. After washing, an rabbit anti-human Fc antibody (purchased from Shanghai Pu Xin Biotechnology Co., Ltd.) was added and reacted for 1 hour at room temperature. After washing, goat anti-rabbit horseradish peroxidase labeled antibody (purchased from Shanghai Pu Xin Biotechnology Co., Ltd.) was added and reacted at room temperature for 1 hour. After washing, chromogenic agent was added and the absorbance was read at 405 nm.

[3] = molecular target: T1, CTLA4-Fc fusion protein; assay: ELISA OD ratio, value equals OD(CTLA4)/OD(blank)
Protocol: (§3) Plates were coated with CTLA4-Fc fusion protein overnight at 4° C. and 10 ng of the heavy chain single-domain antibody obtained in Example 2.1 (the control was a single domain antibody not binding to the CTLA4-Fc protein) was added to each well and allowed to react for 1 hour at room temperature. After washing, primary antibody anti-His tag antibody (purchased from Beijing Kangwei Century Biotechnology Co., Ltd.) was added and reacted for 1 hour at room temperature. After washing, a secondary goat anti-mouse horseradish peroxidase-labeled antibody (Yiqiao Shenzhou, Cat: SSA007200) was added and reacted for 1 hour at room temperature. After washing, chromogenic agent was added and the absorbance was read at 405 nm.

[4] = molecular target: T1, CTLA4-Fc fusion protein; assay: ELISA, VHH coated 0.5 µg/well, dilution series of CTLA4-Fc, anti-human IgG-Fc HRP; antibody No. C27
Protocol: (§4) The plates were coated with the obtained CTLA4 heavy chain single-domain antibody at 0.5 μg/well overnight at 4° C. followed by addition of a gradient dilution series of CTLA4-Fc fusion protein and allowed to react for 1 hour at room temperature. After washing, goat anti-human IgG-Fc horseradish peroxidase labeled antibody (lakepharma) was added and allowed to react for 1 hour at room temperature. After washing, horseradish peroxidase c chromogenic solution was added and the absorbance was read at a wavelength of 405 nm.

[5] = molecular target: T1, CTLA4-Fc fusion protein; assay: ELISA OD ratio, value equals OD(CTLA4)/OD(Fc)
Protocol: as §3, §2

[6] = molecular target: T3, Mouse CTLA4-Fc protein (mouse, biotinylated (mCTLA4-Fc-Biotin)); assay: ELISA, VHH coated 0.5 µg/well, mCTLA4-Fc-Biotin, SA-HRP
T3 construct: also called mCTLA4-Fc-Biotin; mouse CTLA4-Fc fusion protein
Protocol: (§5) Thereafter, SA-HRP (purchased from Sigma) was added, and the mixture was reacted at room temperature for 1.5 hours. After washing, chromogenic agent was added and the absorbance was read at 405 nm.

[7] = molecular target: T1, CTLA4-Fc fusion protein; assay: competitive ELISA, CTLA4-Fc coated, VHH series with 250 ng/mL CD80-Fc-Biotin
Protocol: as §1

[8] = molecular target: T1, CTLA4-Fc fusion protein; assay: ELISA, CTLA4-Fc coated, 10 ng VHH/well
Protocol: as §3

[9] = molecular target: T3, Mouse CTLA4-Fc protein; assay: ELISA, VHH coated 0.5 µg/well, mouse CTLA4-Fc (biotinylated), SA-HRP; blank 0.027
Protocol: as §5

[10] = molecular target: T1, CTLA4-Fc fusion protein; assay: ELISA, VHH coated 0.5 µg/well, dilution series of CTLA4-Fc, anti-human IgG-Fc HRP; antibody No. C1
Protocol: as §4

[11] = molecular target: T1, CTLA4-Fc fusion protein; assay: ELISA, VHH coated 0.5 µg/well, dilution series of CTLA4-Fc, anti-human IgG-Fc HRP; antibody No. 145 (printed as No. 14)
Protocol: as §4

[12] = molecular target: T1, CTLA4-Fc fusion protein; assay: ELISA, VHH coated 0.5 µg/well, dilution series of CTLA4-Fc, anti-human IgG-Fc HRP; antibody No. 155
Protocol: as §4

Binder | OD [1] [OD405] | OD (against Fc) [2] [OD405] | ODa/ODb [3] | EC50 [4] [µg/mL] | ODa/OD blank [5] | binding result [6] | IC50 [7] [µg/mL] | OD (against CTLA4) [8] [OD405] | OD (against mouse CTLA4) [9] [OD405] | EC50 [10] [µg/mL] | EC50 [11] [µg/mL] | EC50 [12] [µg/mL]
CTLA4 heavy chain single domain antibody No. C27 (VHH, Camel VHH expressed in E. coli (PET32b), nickel-purified) VHH: QVQLQESGGGSVQAGGSLRLSCAASGYIYSAYCMGWFRQAPGKERVGVAAISIGGGSTYYADSVKGRFTISQDNAKNTLYLQMNSLKPEDTAMYYCAADVIPTETCLGGSWSGPFGYWGQGTQVTVSS | 0.04 | 0.049 | 46.8 | ~0.093 | 26.7 | no binding | ~0.731 | 1.31 | 0.021 |  |  | 
CTLA4 heavy chain single domain antibody No. 145 (VHH, Camel VHH expressed in E. coli (PET32b), nickel-purified) VHH: QVQLQESGGGSVQAGGSLRLSCAASGYTYSSYSMGWFRQAAGKEREGVAAIDSDGSTSYADSVKGRFTISQDNAKNTLYLQMNSLEPEDTAMYYCAATAGWYAARHALSPLFFGYWGQGTQVTVSS | 0.597 | 0.065 | 53.1 |  | 22.9 | no binding | ~1.95 | 1.49 | 0.026 |  | ~0.05 | 
CTLA4 heavy chain single domain antibody No. C2 (VHH, Camel VHH expressed in E. coli (PET32b), nickel-purified) VHH: QVQLQESGGGSVQPGGSLRLSCAVSGFTFSGYCMAWVRQAPGKGLEWVASIHRRDGSTDYADSVKGRFTISKDNSKNTLYLQMSSLKPEDTAVYYCAADPARLSCSGRVNSEYKYRGQGTQVTVSS | 2.52 | 0.035 | 44 |  | 35.2 |  |  | 1.23 |  |  |  | 
CTLA4 heavy chain single domain antibody No. C38 (VHH, Camel VHH expressed in E. coli (PET32b), nickel-purified) VHH: QVQLQESGGGSVQAGGSLRLSCAASRYTASSNCMAWFRQAPGKEREGVATIYNGGGSTAYADSVKGRFTISQDNAKNTVYLQMNSLKPEDTAMYYCGAGSPRFCASATMTGGHHLFGYWGQGTQVTVSS | 2.28 | 0.045 | 36.5 |  | 22.7 |  |  | 1.02 |  |  |  | 
CTLA4 heavy chain single domain antibody No. J39 (VHH, Camel VHH expressed in E. coli (PET32b), nickel-purified) VHH: QVQLQESGGGSVQAGGSLRLSCAPSRYSGALMGWFRQAPGKEREGVAVISRSGLTTYYADSVKGRFTISQDTAKNTIYLQMNSMKPEDTAMYYCVAAPEARAWSSRDPTGYNYWGQGTQVTVSS | 2.13 | 0.042 | 62.4 |  | 41.6 |  |  | 1.75 |  |  |  | 
CTLA4 heavy chain single domain antibody No. J42 (VHH, Camel VHH expressed in E. coli (PET32b), nickel-purified) VHH: QVQLQESGGGSVQAGGSLRLSCAASGYTYSSYNSNCMGWFRQAPGKEREGVAAIDSDGSTSYADSVKGRFTISKDNAKNTLYLQMNSLKPEDTAMYYCAASPRTCEVFSLGGSWHLFGYWGQGTQVTVSS | 0.94 | 0.045 | 38.8 |  | 24.1 |  |  | 1.09 |  |  |  | 
CTLA4 heavy chain single domain antibody No. J17 (VHH, Camel VHH expressed in E. coli (PET32b), nickel-purified) VHH: QVQLQESGGGSVQAGGSLRLSCAASGFTLSSYTMTWLRQAPGKGLEWVSTINSGGSTSYADSVKGRFAISRDNAKNILYLQLNSLEIEDTGMYYCQGGLTQRGQGTQVTVSS | 2.53 | 0.046 | 50 |  | 30.4 |  |  | 1.4 |  |  |  | 
CTLA4 heavy chain single domain antibody No. J5 (VHH, Camel VHH expressed in E. coli (PET32b), nickel-purified) VHH: QVQLQESGGGSVQAGGSLRLSCAASGYTYSTYCMAWFRQVPEKERERVASIYTGGGTTYYADSVKGRFTISLDNAKNTLYLQMNSLKPEDTAMYYCAKSAARCDSSRDVNRLGYWGQGTQVTVSS | 2.5 | 0.036 | 43.2 |  | 33.6 |  |  | 1.21 |  |  |  | 

Results, then the binder that gave them:

OD [1] [OD405] | OD (against Fc) [2] [OD405] | ODa/ODb [3] | EC50 [4] [µg/mL] | ODa/OD blank [5] | binding result [6] | IC50 [7] [µg/mL] | OD (against CTLA4) [8] [OD405] | OD (against mouse CTLA4) [9] [OD405] | EC50 [10] [µg/mL] | EC50 [11] [µg/mL] | EC50 [12] [µg/mL] | Binder
0.054 | 0.053 | 42.9 |  | 22.7 | no binding | 0.852 | 1.2 | 0.042 | ~0.123 |  |  | CTLA4 heavy chain single domain antibody No. C1 (VHH, Camel VHH expressed in E. coli (PET32b), nickel-purified, detected by anti-His tag antibody) VHH: QVQLQESGGGSVQAGGSLGLSCAASGYIYSAYCMGWFRQAPGKEREGVAAIYLGGGSTYYADSVKGRFTISQDIAKNTLYLQMNSLKPEDTAMYSCAADVIPTETCLGGSWSGPFGYWGQGTQVTVSS
1.06 | 0.034 | 42.9 |  | 35.3 |  |  | 1.2 |  |  |  |  | CTLA4 heavy chain single domain antibody No. J37 (VHH, Camel VHH expressed in E. coli (PET32b), nickel-purified) VHH: QVQLQESGGGSVQAGGTLRLSCAVSGVTYSPHCMGWFRQAPGKEREGVAAIYNGGGSTAYADSVKGRFTISQDNAKNTVYLQMNSLKPEDTAMYYCGAGSPRFCASATMTGGHHLFGYWGQGTQVTVSS
0.746 | 0.051 | 61.6 |  | 33.8 | no binding | ~4.69 | 1.72 | 0.032 |  |  | ~0.013 | CTLA4 heavy chain single domain antibody No. 155 (VHH, Camel VHH expressed in E. coli (PET32b), nickel-purified) VHH: QVQLQESGGGPVQAGGSLRLSCAVSKYPYSGSCMGWFRQAPGKEREGVAAMFTGTGSTYYADSVKGRFTISQNVAKNTLDLQMNSLKPEDTAMYYCAVDLLPRSTRCLDYGLRTYNYWGQGTQVTVSS
2.57 | 0.036 | 29.4 |  | 22.9 |  |  | 0.823 |  |  |  |  | CTLA4 heavy chain single domain antibody No. J35 (VHH, Camel VHH expressed in E. coli (PET32b), nickel-purified) VHH: QVQLQESGGGSVQAGGSLRLSCAASGYTSGYYVMGWYRQAPGKLREFVSSIDSNGGTMYADSVKGRFTISQDNAKNTAHLQMNSLKPEDTAMYYCKRDSPGNFYWGQGTQVTVSS
2.5 | 0.036 | 51.4 |  | 40 |  |  | 1.44 |  |  |  |  | CTLA4 heavy chain single domain antibody No. J29 (VHH, Camel VHH expressed in E. coli (PET32b), nickel-purified) VHH: QVQLQESGGGLVQPGGSLRLSCAASGFTISSYTMTWLHQAPGKGLEWVSTINSGGSTAYADSVKGRFAISRDNAKNTLYLQLNSLKIEDTGMYYCQGGLTQRGQGTQVTVSS

From patent US20190315864A1 (SUZHOU ALPHAMAB, published 2019)
